Reference: patent publication US20250298024A1
Blank lines part the entries; values can stand above or below the substance they belong to.

Assays:
[1] = biological target: polypeptide molecule 8 (human) (UniProt P05186); assay: sandwich ELISA, ALP-labeled anti-TNAP detection; calibrator C4 (140 ug/mL), run 1
[2] = biological target: polypeptide molecule 8 (human) (UniProt P05186); assay: sandwich ELISA, ALP-labeled anti-TNAP detection; calibrator C2 (35 ug/mL), run 2
[3] = biological target: polypeptide molecule 8 (human) (UniProt P05186); assay: sandwich ELISA, ALP-labeled anti-TNAP detection; calibrator C2 (35 ug/mL), run 1
[4] = biological target: polypeptide molecule 8 (human) (UniProt P05186); assay: sandwich ELISA, ALP-labeled anti-TNAP detection; calibrator C3 (70 ug/mL), mean of 3
[5] = biological target: polypeptide molecule 8 (human) (UniProt P05186); assay: sandwich ELISA, ALP-labeled anti-TNAP detection; calibrator C2 (35 ug/mL), mean of 3
[6] = biological target: polypeptide molecule 8 (human) (UniProt P05186); assay: sandwich ELISA, ALP-labeled anti-TNAP detection; calibrator C4 (140 ug/mL), mean of 3
[7] = biological target: polypeptide molecule 8 (human) (UniProt P05186); assay: sandwich ELISA, ALP-labeled anti-TNAP detection; calibrator C4 (140 ug/mL), run 3
[8] = biological target: polypeptide molecule 8 (human) (UniProt P05186); assay: sandwich ELISA, ALP-labeled anti-TNAP detection; calibrator C4 (140 ug/mL), run 2
[9] = biological target: polypeptide molecule 8 (human) (UniProt P05186); assay: sandwich ELISA, ALP-labeled anti-TNAP detection; calibrator C2 (35 ug/mL), run 3
[10] = biological target: polypeptide molecule 8 (human) (UniProt P05186); assay: sandwich ELISA, ALP-labeled anti-TNAP detection; calibrator C1 (17.5 ug/mL), run 3
[11] = biological target: polypeptide molecule 8 (human) (UniProt P05186); assay: sandwich ELISA, ALP-labeled anti-TNAP detection; calibrator C5 (280 ug/mL), mean of 3
[12] = biological target: polypeptide molecule 8 (human) (UniProt P05186); assay: sandwich ELISA, ALP-labeled anti-TNAP detection; calibrator C1 (17.5 ug/mL), run 2
[13] = biological target: polypeptide molecule 8 (human) (UniProt P05186); assay: sandwich ELISA, ALP-labeled anti-TNAP detection; calibrator C3 (70 ug/mL), run 3
[14] = biological target: polypeptide molecule 8 (human) (UniProt P05186); assay: sandwich ELISA, ALP-labeled anti-TNAP detection; calibrator C3 (70 ug/mL), run 1
[15] = biological target: polypeptide molecule 8 (human) (UniProt P05186); assay: sandwich ELISA, ALP-labeled anti-TNAP detection; calibrator C5 (280 ug/mL), run 3
[16] = biological target: polypeptide molecule 8 (human) (UniProt P05186); assay: sandwich ELISA, ALP-labeled anti-TNAP detection; calibrator C1 (17.5 ug/mL), mean of 3
[17] = biological target: polypeptide molecule 8 (human) (UniProt P05186); assay: sandwich ELISA, ALP-labeled anti-TNAP detection; calibrator C5 (280 ug/mL), run 2
[18] = biological target: polypeptide molecule 8 (human) (UniProt P05186); assay: sandwich ELISA, ALP-labeled anti-TNAP detection; calibrator C5 (280 ug/mL), run 1
[19] = biological target: polypeptide molecule 8 (human) (UniProt P05186); assay: sandwich ELISA, ALP-labeled anti-TNAP detection; calibrator C1 (17.5 ug/mL), run 1
[20] = biological target: polypeptide molecule 8 (human) (UniProt P05186); assay: sandwich ELISA, ALP-labeled anti-TNAP detection; calibrator C3 (70 ug/mL), run 2
[21] = biological target: polypeptide molecule 7 (bovine) (UniProt P19111); assay: HI-1000 capture immunoassay, ALP chemiluminescence; calibrator C3 (0.2846914 ug/mL), mean of 3
UniProt P19111, sequence (P19111 other isoform, or with tags, fused parts or gaps limits assumed): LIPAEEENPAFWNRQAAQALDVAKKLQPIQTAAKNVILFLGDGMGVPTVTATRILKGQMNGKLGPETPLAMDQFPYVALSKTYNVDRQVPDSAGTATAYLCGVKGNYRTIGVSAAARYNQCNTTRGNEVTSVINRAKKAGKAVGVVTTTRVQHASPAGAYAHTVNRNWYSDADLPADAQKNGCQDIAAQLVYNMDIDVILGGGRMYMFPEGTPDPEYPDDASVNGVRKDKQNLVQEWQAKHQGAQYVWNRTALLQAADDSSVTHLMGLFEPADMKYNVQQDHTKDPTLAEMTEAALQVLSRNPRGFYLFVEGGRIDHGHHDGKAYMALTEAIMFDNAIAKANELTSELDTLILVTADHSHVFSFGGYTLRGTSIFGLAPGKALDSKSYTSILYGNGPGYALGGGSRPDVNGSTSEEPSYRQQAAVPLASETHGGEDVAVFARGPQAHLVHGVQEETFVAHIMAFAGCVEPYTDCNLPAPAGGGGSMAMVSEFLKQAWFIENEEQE

[22] = biological target: polypeptide molecule 7 (bovine) (UniProt P19111); assay: HI-1000 capture immunoassay, ALP chemiluminescence; calibrator C1 (0.0177932 ug/mL), mean of 3
[23] = biological target: polypeptide molecule 7 (bovine) (UniProt P19111); assay: HI-1000 capture immunoassay, ALP chemiluminescence; calibrator C2 (0.0711728 ug/mL), run 3
[24] = biological target: polypeptide molecule 7 (bovine) (UniProt P19111); assay: HI-1000 capture immunoassay, ALP chemiluminescence; calibrator C1 (0.0177932 ug/mL), run 1
[25] = biological target: polypeptide molecule 7 (bovine) (UniProt P19111); assay: HI-1000 capture immunoassay, ALP chemiluminescence; calibrator C5 (7.686667 ug/mL), mean of 3
[26] = biological target: polypeptide molecule 7 (bovine) (UniProt P19111); assay: HI-1000 capture immunoassay, ALP chemiluminescence; calibrator C4 (2.562222 ug/mL), mean of 3
[27] = biological target: polypeptide molecule 7 (bovine) (UniProt P19111); assay: HI-1000 capture immunoassay, ALP chemiluminescence; calibrator C1 (0.0177932 ug/mL), run 3
[28] = biological target: polypeptide molecule 7 (bovine) (UniProt P19111); assay: HI-1000 capture immunoassay, ALP chemiluminescence; calibrator C3 (0.2846914 ug/mL), run 2
[29] = biological target: polypeptide molecule 7 (bovine) (UniProt P19111); assay: HI-1000 capture immunoassay, ALP chemiluminescence; calibrator C4 (2.562222 ug/mL), run 3
[30] = biological target: polypeptide molecule 7 (bovine) (UniProt P19111); assay: HI-1000 capture immunoassay, ALP chemiluminescence; calibrator C5 (7.686667 ug/mL), run 2
[31] = biological target: polypeptide molecule 7 (bovine) (UniProt P19111); assay: HI-1000 capture immunoassay, ALP chemiluminescence; calibrator C2 (0.0711728 ug/mL), run 1
[32] = biological target: polypeptide molecule 7 (bovine) (UniProt P19111); assay: HI-1000 capture immunoassay, ALP chemiluminescence; calibrator C4 (2.562222 ug/mL), run 2
[33] = biological target: polypeptide molecule 7 (bovine) (UniProt P19111); assay: HI-1000 capture immunoassay, ALP chemiluminescence; calibrator C5 (7.686667 ug/mL), run 1
[34] = biological target: polypeptide molecule 7 (bovine) (UniProt P19111); assay: HI-1000 capture immunoassay, ALP chemiluminescence; calibrator C5 (7.686667 ug/mL), run 3
[35] = biological target: polypeptide molecule 7 (bovine) (UniProt P19111); assay: HI-1000 capture immunoassay, ALP chemiluminescence; calibrator C3 (0.2846914 ug/mL), run 3
[36] = biological target: polypeptide molecule 7 (bovine) (UniProt P19111); assay: HI-1000 capture immunoassay, ALP chemiluminescence; calibrator C2 (0.0711728 ug/mL), mean of 3
[37] = biological target: polypeptide molecule 7 (bovine) (UniProt P19111); assay: HI-1000 capture immunoassay, ALP chemiluminescence; calibrator C1 (0.0177932 ug/mL), run 2
[38] = biological target: polypeptide molecule 7 (bovine) (UniProt P19111); assay: HI-1000 capture immunoassay, ALP chemiluminescence; calibrator C3 (0.2846914 ug/mL), run 1
[39] = biological target: polypeptide molecule 7 (bovine) (UniProt P19111); assay: HI-1000 capture immunoassay, ALP chemiluminescence; calibrator C2 (0.0711728 ug/mL), run 2
[40] = biological target: polypeptide molecule 7 (bovine) (UniProt P19111); assay: HI-1000 capture immunoassay, ALP chemiluminescence; calibrator C4 (2.562222 ug/mL), run 1

UniProt P05186, sequence (P05186 other isoform, or with tags, fused parts or gaps limits assumed): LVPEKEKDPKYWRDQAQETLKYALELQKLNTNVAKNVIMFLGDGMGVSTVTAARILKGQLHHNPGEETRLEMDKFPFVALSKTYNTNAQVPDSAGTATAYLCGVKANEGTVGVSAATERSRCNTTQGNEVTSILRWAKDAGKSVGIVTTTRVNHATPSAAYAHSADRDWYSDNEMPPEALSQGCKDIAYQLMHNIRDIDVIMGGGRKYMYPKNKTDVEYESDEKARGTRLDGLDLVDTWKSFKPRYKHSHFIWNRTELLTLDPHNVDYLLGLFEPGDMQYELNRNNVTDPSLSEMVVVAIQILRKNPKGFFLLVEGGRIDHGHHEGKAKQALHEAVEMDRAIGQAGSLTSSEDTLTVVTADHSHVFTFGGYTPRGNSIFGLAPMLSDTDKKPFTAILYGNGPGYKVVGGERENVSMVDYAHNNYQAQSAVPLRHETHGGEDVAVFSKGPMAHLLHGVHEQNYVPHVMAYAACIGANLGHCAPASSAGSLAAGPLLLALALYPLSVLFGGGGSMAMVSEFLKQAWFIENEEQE

- relative emission intensity (RLU) [1]: 50900 RLU
- relative emission intensity (RLU) [2]: 21700 RLU
- relative emission intensity (RLU) [3]: 21600 RLU
- relative emission intensity (RLU), AV [4]: 32400 RLU
- relative emission intensity (RLU), AV [5]: 22800 RLU
- relative emission intensity (RLU), AV [6]: 51200 RLU
- relative emission intensity (RLU) [7]: 50900 RLU
- relative emission intensity (RLU) [8]: 51900 RLU
- relative emission intensity (RLU) [9]: 25000 RLU
- relative emission intensity (RLU) [10]: 17000 RLU
- relative emission intensity (RLU), AV [11]: 87600 RLU
- relative emission intensity (RLU) [12]: 16400 RLU
- relative emission intensity (RLU) [13]: 32100 RLU
- relative emission intensity (RLU) [14]: 31900 RLU
- relative emission intensity (RLU) [15]: 87800 RLU
- relative emission intensity (RLU), AV [16]: 16700 RLU
- relative emission intensity (RLU) [17]: 86100 RLU
- relative emission intensity (RLU) [18]: 89000 RLU
- relative emission intensity (RLU) [19]: 16500 RLU
- relative emission intensity (RLU) [20]: 33200 RLU
Substance: anti-Annexin A1 antibody (Santacruz, sc-12740)

- emission intensity (count), AV [21]: 46600 count
- emission intensity (count), AV [22]: 3700 count
- emission intensity (count) [23]: 13000 count
- emission intensity (count) [24]: 3800 count
- emission intensity (count), AV [25]: 450000 count
- emission intensity (count), AV [26]: 266000 count
- emission intensity (count) [27]: 3650 count
- emission intensity (count) [28]: 46800 count
- emission intensity (count) [29]: 271000 count
- emission intensity (count) [30]: 460000 count
- emission intensity (count) [31]: 13000 count
- emission intensity (count) [32]: 260000 count
- emission intensity (count) [33]: 439000 count
- emission intensity (count) [34]: 452000 count
- emission intensity (count) [35]: 45800 count
- emission intensity (count), AV [36]: 13000 count
- emission intensity (count) [37]: 3650 count
- emission intensity (count) [38]: 47000 count
- emission intensity (count) [39]: 13100 count
- emission intensity (count) [40]: 266000 count
Substance: biotin-labeled anti-Annexin A1 antibody (Clone: EH17a)
